In US20120251580A1:

Key:
[1] = target: purified recombinant galectin-3 (gal3) (UniProt P17931); experiment: solid phase assay, inhibition of gal3 binding to asialofetuin
[2] = target: N-terminal of gal9 (gal9N); experiment: solid phase assay, inhibition of gal9N binding to plate-bound asialofetuin (competitor), anti-galectin antibody detection
[3] = target: purified recombinant galectin-3 (gal3) (UniProt P17931); experiment: cell-based or functional assay
[4] = target: prostate cancer patient serum-associated gal3 (human) (UniProt P17931); experiment: cell-based or functional assay
[5] = target: gal3 on the surface of human PC3 and HUVEC cells (human) (UniProt P17931); experiment: cell-based or functional assay
[6] = target: gal3 on the surface of B16 melanoma cells (murine) (UniProt P16110); experiment: cell-based or functional assay
[7] = target: purified recombinant galectin-3 (gal3) (UniProt P17931); experiment: SPR (Biacore T200), derived from the dissociation rate
[8] = target: purified recombinant galectin-3 (gal3) (UniProt P17931); experiment: SPR (Biacore T200), biotinylated gal3 captured on SA chip, 1:1 binding model
gal4 [9] = experiment: solid phase assay, inhibition of gal4 binding to asialofetuin
[10] = target: purified recombinant galectin-3 (gal3) (UniProt P17931); experiment: solid phase assay, inhibition of gal3 binding to asialofetuin, molar basis
[11] = target: N-terminal of gal9 (gal9N); experiment: solid phase assay, inhibition of gal9N binding to asialofetuin
[12] = target: purified recombinant galectin-3 (gal3) (UniProt P17931); experiment: SPR (Biacore T200), biotinylated gal3 captured on SA chip, TFD100 0.312-10 nM, 1:1 binding model
[13] = target: purified recombinant galectin-3 (gal3) (UniProt P17931); experiment: solid phase assay, inhibition of gal3 binding to plate-bound asialofetuin (competitor)
gal4 [14] = experiment: solid phase assay, inhibition of gal4 binding to plate-bound asialofetuin (competitor), anti-galectin antibody detection
[15] = target: gal3 on the surface of B16 melanoma cells (murine) (UniProt P16110); experiment: flow cytometry on B16 melanoma cells (unstained cells 214), control
[16] = target: gal3 on the surface of human PC3 and HUVEC cells (human) (UniProt P17931); experiment: flow cytometry on PC3 cells (unstained cells 205), control
[17] = target: gal3 on the surface of human PC3 and HUVEC cells (human) (UniProt P17931); experiment: flow cytometry on HUVEC cells (unstained cells 97), control

Sequence of purified recombinant galectin-3 (gal3) (P17931 whole entry, the tested form may be a part): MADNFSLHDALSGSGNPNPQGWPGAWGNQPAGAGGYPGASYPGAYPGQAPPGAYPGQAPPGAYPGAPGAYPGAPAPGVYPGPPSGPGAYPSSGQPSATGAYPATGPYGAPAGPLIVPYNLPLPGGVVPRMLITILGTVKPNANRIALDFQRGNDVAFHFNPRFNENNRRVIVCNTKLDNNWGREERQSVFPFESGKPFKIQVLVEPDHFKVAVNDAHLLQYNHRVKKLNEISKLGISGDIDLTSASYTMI
Sequence of gal3 on the surface of human PC3 and HUVEC cells (human) (P17931 2-250): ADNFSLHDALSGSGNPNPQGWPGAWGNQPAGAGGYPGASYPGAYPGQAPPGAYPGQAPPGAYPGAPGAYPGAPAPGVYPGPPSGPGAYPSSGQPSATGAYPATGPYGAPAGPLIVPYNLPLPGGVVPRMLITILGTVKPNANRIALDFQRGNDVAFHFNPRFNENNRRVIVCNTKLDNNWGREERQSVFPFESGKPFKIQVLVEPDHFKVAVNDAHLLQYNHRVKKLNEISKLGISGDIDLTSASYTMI
Sequence of gal3 on the surface of B16 melanoma cells (murine) (P16110 2-264): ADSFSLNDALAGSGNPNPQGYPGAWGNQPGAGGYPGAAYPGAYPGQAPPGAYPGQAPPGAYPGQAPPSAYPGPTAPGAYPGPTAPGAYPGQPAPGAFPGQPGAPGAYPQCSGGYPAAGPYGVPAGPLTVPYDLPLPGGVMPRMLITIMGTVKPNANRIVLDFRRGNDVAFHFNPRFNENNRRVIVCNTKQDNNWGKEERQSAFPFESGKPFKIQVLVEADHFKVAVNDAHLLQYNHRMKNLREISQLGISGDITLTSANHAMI
Sequence of prostate cancer patient serum-associated gal3 (human) (P17931 2-250 limits assumed): as the sequence (P17931 2-250) above

Crude extract (crude anti-freeze glycoproteins of cod, A/F Protein)
IC50 [1]: 108 µg/mL | RIA (relative inhibitory activity compared to lactose taken as 1) (relative to lactose = 1) [1]: 0.25

Fraction 1 (>50 kDa) of cod anti-freeze glycoproteins
IC50 [1]: 2.5 µg/mL | RIA (relative inhibitory activity compared to lactose taken as 1) (relative to lactose = 1) [1]: 10.5

Fraction 2 (<50 kDa, >30 kDa) of cod anti-freeze glycoproteins
IC50 [1]: 27 µg/mL | RIA (relative inhibitory activity compared to lactose taken as 1) (relative to lactose = 1) [1]: 1

Fraction 3 (<30 kDa, >10 kDa) of cod anti-freeze glycoproteins
IC50 [1]: 82 µg/mL | RIA (relative inhibitory activity compared to lactose taken as 1) (relative to lactose = 1) [1]: 0.33

Fraction 4 (<10 kDa, >3 kDa) of cod anti-freeze glycoproteins
IC50 [1]: 300 µg/mL | RIA (relative inhibitory activity compared to lactose taken as 1) (relative to lactose = 1) [1]: 0.09

Fraction 5 (<3 kDa) of cod anti-freeze glycoproteins
RIA (relative inhibitory activity compared to lactose taken as 1) (relative to lactose = 1) [1]: < 0.06

O-glycosidase treated TFD100
% inhibition at 6.2 nM [1]: 45%

TFD100 (Thomsen-Friedenreich disaccharide-containing glycopeptide of approximately 100 kDa purified from Pacific cod, Gadus macrocephalus)
IC50 [2]: 1.5 nM | apoptosis of activated pmel CD8+ T cells with 5 µM recombinant gal3 plus 3.5 nM TFD100 (˜76% with gal3 alone, ˜61% CD8 alone) [3]: 72 % apoptosis | inhibition of gal3 (5 µM)-induced apoptosis of MOLT-4 cells by 3.5 nM TFD100 (annexin V binding) [3]: 34% | inhibition of gal3 (5 µM)-induced apoptosis of human CD8+ T cells by 3.5 nM TFD100 [3]: 77% | inhibition of gal3 (5 µM)-mediated apoptosis of Jurkat cells by 3.5 nM TFD100 [3]: 63% | apoptosis of activated tumor-specific CD8+ cells with patient serum plus 3.5 nM TFD100 (87-93% with patient serum alone) [4]: 66 % apoptosis | inhibition of binding of calcein-labeled PC3 cells to HUVEC monolayer (PC3 pre-treated with 3.5 nM TFD100) [5]: 33% | inhibition of tumor-endothelial cell interactions (HUVEC monolayer pre-incubated with 3.5 nM TFD100) [5]: 45% | apoptosis of activated tumor specific CD8+ T cells on a B16 monolayer with 3.5 nM TFD100 (about 53% without) [6]: 36 % apoptosis | half-life for the complex [7]: 38.5 min | koff [8]: 0.0003 s⁻¹ | kon [8]: 3.1e+06 M⁻¹ s⁻¹ | RIA (relative inhibitory activity compared to lactose taken as 1) (fold vs lactose) (gal4 [9]): 8.33e+06 | fold activity in inhibiting gal3 binding compared to free TFD [10]: 800000 fold | RIA (relative inhibitory activity compared to lactose taken as 1) (fold vs lactose) [11]: 66700 | Kd [12]: 0.0968 nM | IC50 [13]: 0.25 nM | RIA (relative inhibitory activity compared to lactose taken as 1) (fold vs lactose) [1]: 400000 | IC50 (gal4 [14]): 1.2 nM

pre-immune IgG (protein A-Sepharose purified pre-immune rabbit serum) (antibody)
mean fluorescence unit (mfu) [15]: 1000 mfu | mean fluorescence unit (mfu) [16]: 759 mfu | mean fluorescence unit (mfu) [17]: 95 mfu
